B1: recombinant catalytic domain of human MMP12 (protein)
chain: GPVWRKHYITYRINNYTPDMNREDVDYAIRKAFQVWSNVTPLKFSKINTGMADILVVFARGAHGDFHAFDGKGGILAHAFGPGSGIGGDAHFDEDEFWTTHSGGTNLFLTAVHEIGHSLGLGHSSDPKAVMFPTYKYVDINTFRLSADDIRGIQSLYG
B2: recombinant catalytic domain of human MMP1 (protein)
chain: FVLTEGNPRWEQTHLTYRIENYTPDLPRADVDHAIEKAFQLWSNVTPLTFTKVSEGQADIMISFVRGDHRDNSPFDGPGGNLAHAFQPGPGIGGDAHFDEDERWTNNFREYNLHRVAAHELGHSLGLSHSTDIGALMYPSYTFSGDVQLAQDDIDGIQAIYGRSQNPVQP

Biological target: All antibodies according to the invention, which were tested (Example 4)

| Protein | cleavage of fluorogenic peptide OmniMMP RED by MMP catalytic domain, antibody at 100 nM |
| --- | --- |
| B1 | had no significant effect on the catalytic activity of the eight other human MMPs tested |
| B2 | had no significant effect on the catalytic activity of the eight other human MMPs tested |
